The values below come from patent publication US20040082509A1.

This assay has as its target JNKs. As to the kind of experiment: cell-based or functional assay.

With GRKKRRQRRRPPDTYRPKRPTTLNLFPQVPRSQDT [L-TAT-IB1 peptide], the phosphorylation of GST-jun (1-89) by JNKs pulled down from UV-irradiated HeLa or IL-1β treated βTC-3 cell extracts; peptide at 25 µM was 25 µM.

GRKKRRQRRRPPEEPHKHRPTTLRLTTLGAQDS [L-TAT-IB2 peptide] came in with a phosphorylation of GST-jun (1-89) by JNKs pulled down from UV-irradiated HeLa or IL-1β treated βTC-3 cell extracts; peptide at 25 µM of 25 µM.
